Measured values taken from US20240245805A1 (Orna Therapeutics, Inc., priority 2020, published 2024).

B1: Apodemus agrarius picornavirus strain Longquan-Aa118 (nucleic acid)
DNA: TTACTCAGCGTAACTACTCCGGGTTACGTGATGAAGAAGAGGCTACGGAGATTCTCGGGCTACGGCCCTGGAGCCACTCCGGCTCCTAAAGATTTAGAAGTTTGAGCACACCCGCCCACTAGGGCCCCCCATCCAGGGGGGCAACGGGCAAGCACTTCTGTTTCCCCGGTATGATCTGATAGGCTGTAACCACGGCTGAAACAGAGATTATCGTTATCCGCTTCACTACTTCGAGAAGCCTAGTAATGATGGGTGAAATTGAATCCGTTGATCCGGTGTCTCCCCCACACCAGAAACTCATGATGAGGGTTGCCATCCCGGCTACGGCGACGTAGCGGGCATCCCTGCGCTGGCATGAGGCCTCTTAGGAGGACGGATGATATGGATCTTGTCGTGAAGAGCCTATTGAGCTAGTGTCGACTCCTCCGCCCCCGTGAATGCGGCTAATCCTAACCCCGGAGCAGGTGGGTCCAATCCAGGGCCTGGCCTGTCGTAATGCGTAAGTCTGGGACGGAACCGACTACTTTCGGGAAGGCGTGTTTCCATTTGTTCATTATTTGTGTGTTTATGGTGACAACTCTGGGTAAACGTTCTATTGCGTTTATTGAGAGATTCCCAACAATTGAACAAACGAGAACTACCTGTTTTATTAAATTTACACAGAGAAGAATTACA
modifications: source: /note="Description of Unknown: Apodemus agrarius picornavirus strain Longquan-Aa118 sequence"
B2: Turkey Gallivirus M176 (nucleic acid, listed as Gallivirus sp.)
DNA: CCACTCGCACTTCCTGGATAGTGCGTTAGATATGCCCGACATATCGCTTCCAGGACCAAAGCCCCCCTTTTCTCTTTCCCAACCAGCTTCGCCACTCAAGCTGTAATTCCATGTCCGGTCTTTCCGGCCTTAGTATCATGGAAATGTGGTCGTGCTCAAATGAAATTGAGTTGACATTGATCAATGAAAGTTGCACTGAACTTTGCTAAACTGGCTAGCGCCACCTGGTGTGTGCCGTTGGTCTCCTCACATGGTAACATGTGCCAACGGGCCCGAAAGGCTAGTGGGCAATTACCGCTCCAAGGGAGGGGTACCCACCCCGACCTGAACAGCGGTAATGAAGCTCACCTCCCAGGCTCTGACCCCGAGAAGTTTAGTTATTTAGTAGGTGTAATTAGTACTTGTGATTGGTCAATTTGATAGTAGTTTGAAACGTTATGGATGAATGAGTAGACCCCCTGAAGGTACCCCATTACATGGGATCTGATCAGGGCCACATTCTGCGTGTCTCCCCGCACTTGTGGTTAAAACCATGAAAGTTCATCCCAAACAATCTTTTCCTCTTCTTTTTCTTTTAGTGGTGACAACCTACTGGATTGGTGATTACCAATCTGTACTAGTGTTGTATTAAGACTTGTTGTGTGGAGAAAATGGACTCTTTCAAGAAGATTTTTG
modifications: lipid formulation
B3: Human enterovirus 109 (nucleic acid, listed as Enterovirus sp.)
DNA: TTTAAAACAGCCTGGGGGTTGTTCCCACCCCCAGGGCCCACTGGGCGTTAGTACTCTGGTATCGCGGTACCTTAGTATGCCTGTTTTATGTCTCCTTTCCCCCGCAACTTTAGAAGTAATCAAGTTATGGCTCAACAGTCGCCACACCCCCAGTGTGGTTCCGAGCAAGCACTTCTGTTCCCCGGTTGCGTCTTATATGCTGTGTGAACGGCAGAAAGGGACAATATCGTTATCCGCTCAACTACTACGGGAAGCCTAGTACCACCATGGATTGACCTGAAAGTTGCGTTCAGCGCACCCCCAGCGCAGCTCAGGCCGATGAGGCTCCGAATACCCCACGGGCGACCGTGTCGGAGCCTGCGTTGGCGGCCTGCCCACGTTGCAAAACGTGGGACGCTCATTTCATGACATGGTGCGAAGAGCCTACTGTGCTAGTTGAGAGTCCTCCGGCCCCTGAATGTGGATAATCCTAACCACTGAACCTACGGGCGCAAACCAGCGTCTGGTAGGCCGTAACGCGCAAGTCGGTGGCGGAACCAACTACTTTGGGTGTCCGTGTTTCCTTTTATCTTTTTGAATGTTTATGGTGACAATTGTTGTGTACAGTTGTTACCATAGTTTGCATTCAGAAATAAACCTAACACTTTCCAATTATTTGTTACA
B4: Grusopivirus B (nucleic acid)
chain: GCCATCCGTAGGTTCTGGTAAGGTTCCATCAACTGTTGGGGCGCTAGTTGCTATGACCGCATTCACGGACGGATGATTTATAGTATCACCCAATCCGGGCACAACTTCTTTAGCCACTTCTTCCACATTACTAAGGGCTCTCTTGCCGAGTTTCAACGTCTAGTCCACGACACGGACCTTCCTACTTTTCTATCTTCTTATTTTCTCTACTAAATTGGTATCTGGTACTGAAGATATGCGGATTGTGATTTTGTGCCTGTCTAAACTAACCCTATTCTAGGGTTAGGTGGGTACCATATACTAATGGTGAACAGGATTACCTATGTATCCATTAGTCCCTATGGATCTGGCGACCCACAAACTCATGTTCATAGAGAGGCTAAGCTGAGTGCTCGCCGAATAAGCATTGCTTCAGGTGCCGACTATTGTCTGGAAACCACTCAGTGATAGCTATAGGGGGGGGCCCCGTAGCATCTGCCTTACTGCCTGATAGGGTGGCGGCTGGTCCATGAACATGCAGTAACCAGTTGACTTGAC
modifications: lipid formulation; Grusopivirus B
B5: Picornavirales sp. isolate RtMruf-Pico V (nucleic acid)
DNA: TTTGCTCAGCGTAACTTCTCCGGGTTACGTGGAGACCAAAAGGCTACGGAGACTCGGGCTACGGCCCTGGAGCACCTAGGTGCTCCTAAAGACGTTAGAAGTTGTACAAACTCGCCCAATAGGGCCCCCCAACCAGGGGGGTAGCGGGCAAGCACTTCTGTTTCCCCGGTATGATCTCATAGGCTGTACCCACGGCTGAAAGAGAGATTATCGTTACCCGCCTCACTACTTCGAGAAGCCCAGTAATGGTTCATGAAGTTGATCTCGTTGACCCGGTGTTTCCCCCACACCAGAAACCTGTGATGGGGGTGGTCATCCCGGTCATGGCGACATGACGGACCTCCCCGCGCCGGCACAGGGCCTCTTCGGAGGACGAGTGACATGGATTCAACCGTGAAGAGCCTATTGAGCTAGTGTTGATTCCTCCGCCCCCGTGAATGCGGCTAATCCCAACTCCGGAGCAGGCGGGCCCAAACCAGGGTCTGGCCTGTCGTAACGCGAAAGTCTGGAGCGGAACCGACTACTTTCGGGAAGGCGTGTTTCCTTTTGTTCCTTTTATCAAGTTTTATGGTGACAACTCCTGGTAGACGTTTTATTGCGTTTATTGAGAGATTTCCAACAATTGAACAGACTAGAACCACTTGTTTTATCAAACCCTCACAGAATAAGATAACA
modifications: lipid formulation; source: /note="Description of Unknown: Picornavirales sp. isolate RtMruf-PicoV sequence"
B6: Grusopivirus A (nucleic acid)
chain: TGCCTGAGTAGGATTGTGAATTTAGGTATGAGAGGGTTAGCCAACCCATTCTGAACCATAATAGATACGTCAATCTGAATCCATCTAAATCTATCTCTTAGGCAGTGGTGCTGAAATATTGCAAGCTACTAGGGATAGACGTGATCTGATTCAAGAACCTATCTAATGTGGTGATGAGAAGGCTAGGTTTATCCATAGTAATCCCTTGTTCTGAACAGGCAATGCACATGCTCTAGTAGGATCTCGGGCTCTGCGATTGGCTCTAAACCGACCAATCCAGGTAGAGGCACTAAGTGTAGGACTTGCCAAAATGTATTACATGCTGGTACCGACTCACTAGTCTGGAAACTCCACACTGAAAGTGACTGGGGGGGGCCCCATCACATTTGTGCTACTGCTTGATAGAGTTGCGGCTGGTCAACTTGGATTGGTATAACCAGTTGAA
modifications: lipid formulation; Grusopivirus A
B7: Human enterovirus C105 (nucleic acid, listed as Enterovirus sp.)
DNA: CCCCTAGGATCCACTGGATGTCAGTACACTGGTATCGTGGTACCTTTGTACGCCTGTTTTATACCCCCTTCCCCGCAACTTTAGAAGCATCAAAAGCACCGCTCAATAGTCACCACACCCCCAGTGTGGTTTCGAGCAAGCACTTCTGTTTTCCCGGTTGCGTCCCATATGCTGTGCAAACGGCAAAAAGGGACAATATCGTTACCCGCTTGTATACTACGGGAAACCTAGTACCACCATTGATTGTGTTGAGAGTTGCGCTCATCACCTTTCCCCGGTGTAGCTCAGGCCGATGAGGCTCAGAATCCCCCACAGGTGACTGTGTCTGAGCCTGCGTTGGCGGCCTGCCCTCGCCTTATGGCGTGGGACGCTTGATACATGACATGGTGCGAAGAGTCTACTGTGCTATGCAAGAGTCCTCCGGCCCCTGAATGTGGCTAATCCTAACCACTGATCCCACGCACGCAAACCAGTGTGTAGTGGGTCGTAACGCGCAAGTCGGTGGCGGAACCAACTACTTTGGGTGACCGTGTTTCCTTTATTACTTATTGAATGTTTATGGTGACAATTGTTTGATTCAGTTGTTGCCATTCTCTACATTCATTTACCCAGCATCAAACCAATTGAACTGTTACA
B8: Yancheng osbecks grenadier anchovy picornavirus (nucleic acid)
DNA: CCTTAGGGTCTGGAATGCGTCCTTTCTGGGCACTTCCACAATCCTAAGGTAATTTTCAACGCCAGCGATGGAGCGATATCCAAAGAACCTTTATGTTTTAGTTCGTCTTGTATGTTTATAAAATATAAAATTGGGATTAGCAACCCACAAAAACATTTTTGTTATTCTCACCACATGAGAGGGTGGTTAAACCTCTTCGTAACCTATCTTGCTTGATTGGCTACTTGGGCTAGATTTAGGACAACCTCTTTAGCAAGCCTAAATTACTCCTCGTACTTGCACCTGGTAACAGGCGTACCTGGAGGTTACGGTGGCGCTAACTTGGACTTCTCGTTAATTCGTGCAAGTTTAAATGATGCCTATTTTGAATACAAGAAAGTATGATAGTAACTTAGGGCGTGAAGTTCCGCTTAACATAAGGCAGTATAAGTACTAAGATAAGGTGTAAGACCTACCTTAATAACTGTTGTCTTTTCTCATGGTCTTTCCGTGGGAGCCCTTGCTAGGGGTAAAGTTAAGTATTCTCAAATAATTTTTCATTCAAACTCTTTCTCTCTGTTTT
modifications: lipid formulation; source: /note="Description of Unknown: Yancheng osbecks grenadier anchovy picornavirus sequence"

system: HEK293 cells; format: cell-based, human; conditions: circular RNA encoding Gluc with the listed IRES (UTR truncated to 675 nt) transfected into HEK293 cells; supernatant after 24 hours

Going from B1 to B2, the “Expression (luminescence from secreted Gluc protein)” value (“Expression” below) falls from 1.90E+08 to 4.37E+05.

Compared with B3, B4 is lower in “Expression” value: 4.92E+05 for the first, 2.12E+05 for the second.

Compared with B5, B6 is lower in “Expression” value: 2.26E+08 for the first, 1.09E+05 for the second.

Going from B7 to B8, the “Expression” value rises from 5.49E+05 to 1.57E+06.
